Experimental data taken from publication PMC13223232, “Structural basis for TRF2-RAP1 recruitment by EBNA1 at the EBV origin of replication” (Scientific Reports, 2025).

B1: EBNA1 DNA binding domain (DBD) aa 401–607 (domain or fragment)
chain: GRRPFFHPVGEADYFEYHQEGGPDGEPDVPPGAIEQGPADDPGEGPSTGPRGQGDGGRRKKGGWFGKHRGQGGSNPKFENIAEGLRALLARSHVERTTDEGTWVAGVFVYGGSKTSLYNLRRGTALAIPQCRLTPLSRLPFGMAPGPGPQPGPLRESIVCYFMVFLQTHIFAEVLKDAIKDLVMTKPAPTCNIRVTVCSFDDGVDLP
notes: also called EBNA1 DBD; EBNA1 401–607; source: E. coli, purified (Ni-NTA, SEC); not shown: His6-SUMO, N-terminal, cleaved
B2: EBNA1 459–607 (domain or fragment)
chain: RKKGGWFGKHRGQGGSNPKFENIAEGLRALLARSHVERTTDEGTWVAGVFVYGGSKTSLYNLRRGTALAIPQCRLTPLSRLPFGMAPGPGPQPGPLRESIVCYFMVFLQTHIFAEVLKDAIKDLVMTKPAPTCNIRVTVCSFDDGVDLP
notes: also called shorter EBNA1 459–607; core structured DBD; source: E. coli
B3: GST-TRFH domain (amino acids 85–287) (domain or fragment, human, UniProt Q15554 85-287, looked up)
chain: AGEARLEEAVNRWVLKFYFHEALRAFRGSRYGDFRQIRDIMQALLVRPLGKEHTVSRLLRVMQCLSRIEEGENLDCSFDMEAELTPLESAINVLEMIKTEFTLTEAVVESSRKLVKEAAVIICIKNKEFEKASKILKKHMSKDPTTQKLRNDLLNIIREKNLAHPVIQNFSYETFQQKMLRFLESHLDDAEPYLLTMAKKALK
notes: also called TRF2 homodimerization domain; TRF2 dimerization domain; source: E. coli, purified to near homogeneity; not shown: GST, N-terminal, kept
B4: full length TRF2/Rap1 complex (complex)
chain 1: MAAGAGTAGPASGPGVVRDPAASQPRKRPGREGGEGARRSDTMAGGGGSSDGSGRAAGRRASRSSGRARRGRHEPGLGGPAERGAGEARLEEAVNRWVLKFYFHEALRAFRGSRYGDFRQIRDIMQALLVRPLGKEHTVSRLLRVMQCLSRIEEGENLDCSFDMEAELTPLESAINVLEMIKTEFTLTEAVVESSRKLVKEAAVIICIKNKEFEKASKILKKHMSKDPTTQKLRNDLLNIIREKNLAHPVIQNFSYETFQQKMLRFLESHLDDAEPYLLTMAKKALKSESAASSTGKEDKQPAPGPVEKPPREPARQLRNPPTTIGMMTLKAAFKTLSGAQDSEAAFAKLDQKDLVLPTQALPASPALKNKRPRKDENESSAPADGEGGSELQPKNKRMTISRLVLEEDSQSTEPSAGLNSSQEAASAPPSKPTVLNQPLPGEKNPKVPKGKWNSSNGVEEKETWVEEDELFQVQAAPDEDSTTNITKKQKWTVEESEWVKAGVQKYGEGNWAAISKNYPFVNRTAVMIKDRWRTMKRLGMN
chain 2: MAEAMDLGKDPNGPTHSSTLFVRDDGSSMSFYVRPSPAKRRLSTLILHGGGTVCRVQEPGAVLLAQPGEALAEASGDFISTQYILDCVERNERLELEAYRLGPASAADTGSEAKPGALAEGAAEPEPQRHAGRIAFTDADDVAILTYVKENARSPSSVTGNALWKAMEKSSLTQHSWQSLKDRYLKHLRGQEHKYLLGDAPVSPSSQKLKRKAEEDPEAADSGEPQNKRTPDLPEEEYVKEEIQENEEAVKKMLVEATREFEEVVVDESPPDFEIHITMCDDDPPTPEEDSETQPDEEEEEEEEKVSQPEVGAAIKIIRQLMEKFNLDLSTVTQAFLKNSGELEATSAFLASGQRADGYPIWSRQDDIDLQKDDEDTREALVKKFGAQNVARRIEFRKK
notes: also called pre-assembled TRF2-Rap1 complex; source: E. coli, each purified (Ni-NTA, SEC); pre-assembled complex purified by glycerol gradient; not shown: His6-SUMO, N-terminal, cleaved

What was measured:
[1] = target: B4; experiment: native gel or EMSA; IRD700-labelled 60 bp ½ DS DNA probe (5 nM); Rap1, TRF2 or TRF2 + Rap1 titrated up to 480 nM without EBNA1, with EBNA1 401–607 or with EBNA1 Δ90–325; 10 mM HEPES pH 7.5, 300 mM KCl, 5 mM MgCl2, 1 mM ZnCl2, 5 mM BME, 0.05% NP-40, 5% glycerol; 1.4% agarose gel; all proteins meet on the DNA; conditions: both partners purified
full-length TRF2 = target: T1, full-length TRF2 (human, UniProt Q15554 1-542); experiment: cross-linking; zero-length EDC/Sulfo-NHS cross-linking with LC-MS/MS; complex mixed 1 ½ DS DNA : 4 EBNA1 401–607 : 2.5 TRF2 : 2.5 Rap1, glycerol-gradient purified, 1 mg/mL in 20 mM MES pH 6.8, 100 mM NaCl, 1 mM MgCl2, 10 µM ZnCl2, 0.5 mM TCEP; 10 mM crosslinker, room temperature, 2 h; conditions: both partners purified
T1 construct: also called TERF2; source: E. coli, purified (Ni-NTA, SEC); not shown: His6-SUMO, N-terminal, cleaved
T1 sequence (looked up): B4 chain 1

full-length Rap1 = target: T2, full-length Rap1 (human, UniProt Q9NYB0 1-399); experiment: as above; conditions: both partners purified
T2 construct: also called TERF2IP; source: E. coli, purified (Ni-NTA, SEC); not shown: His6-SUMO, N-terminal, cleaved
T2 sequence (looked up): B4 chain 2

[2] = target: the molecule itself; experiment: cryo-EM structure; ½ DS + EBNA1 DBD + TRF2 + Rap1 (1 : 4 : 2.5 : 2.5), GraFix (10-30% glycerol, 0.125% glutaraldehyde); estimated 7.1 Å reconstruction
[3] = target: B3; experiment: native gel or EMSA; supershift of the ½ DS-EBNA1 complex by TRFH (no Myb domain); binding buffer lowered to 100 mM KCl, highest TRFH 10 µM (1000-fold stoichiometric excess); only a weak supershift under standard conditions (300 mM KCl); conditions: both partners purified
[4] = target: B1; experiment: as above; conditions: both partners purified
[5] = target: T3, EBNA1 Δ90–325 3x (E495A D499A E500A) (Epstein-Barr virus, UniProt P03211 1-641, Δ90–325 | E495A | D499A | E500A); experiment: native gel or EMSA; pre-assembled TRF2-Rap1 complex (glycerol-gradient purified) serially diluted and added to pre-assembled ½ DS-EBNA1 complex (20 nM EBNA1 Δ90–325 WT, 3x or 8x, 5 nM ½ DS DNA); binding buffer with 300 mM KCl, pH 7.5; conditions: both partners purified
T3 construct: also called 3x mutant EBNA1; source: E. coli, purified (Ni-NTA, SEC); not shown: His6-SUMO, N-terminal, cleaved
T3 sequence: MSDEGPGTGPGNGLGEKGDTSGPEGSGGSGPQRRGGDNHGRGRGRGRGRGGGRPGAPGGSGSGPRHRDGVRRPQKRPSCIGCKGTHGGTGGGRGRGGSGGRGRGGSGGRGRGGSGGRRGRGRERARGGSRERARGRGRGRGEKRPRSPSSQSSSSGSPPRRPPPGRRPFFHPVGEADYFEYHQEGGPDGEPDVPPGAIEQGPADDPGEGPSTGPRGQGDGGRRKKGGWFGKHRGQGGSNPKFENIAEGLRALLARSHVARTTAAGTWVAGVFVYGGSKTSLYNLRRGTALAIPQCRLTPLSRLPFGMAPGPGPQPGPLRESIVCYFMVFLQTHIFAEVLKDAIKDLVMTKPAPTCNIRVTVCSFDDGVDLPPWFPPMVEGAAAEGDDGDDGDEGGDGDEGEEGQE

B1
binding result [1]: binds
binding result (full-length TRF2): binds
binding result (full-length Rap1): binds
binding result [2]: binds

B2
binding result [3]: binds

B3
binding result [4]: binds

B4
fold weaker binding than with WT EBNA1 [5]: ~2 fold
